Laboratory results taken from the RNAGym collection of RNA variant scans (doi:10.1021/acssynbio.7b00057).

B1: Pistol ribozyme (parent)
chain: GGGUCGUUGUUCCAUAAUCGCGUGGAUAUGGCACGCAAGUUUCUACCGGGCACCGUAAAUGUCCGACUGGAGCCGUUCGGGCGGCUAUAAACAGACCUCAGGCCCGAAGCGUGGCGGCACCUGCCGCCGGUGGUAAAAAAGAUCGGAAGAGCACACGUCU

Variants of: B1
Experiment: aptazyme ON/OFF ratio, guanine; higher = stronger switching; co-transcriptional cleavage with and without guanine

In order of rising “aptazyme ON/OFF ratio” value:
1. U8A G9U U10C U11C C12A  1.01
2. U8A G9U U10G U11A C13A  1.02
3. U8A G9U U10G U11C C12A C13G  1.03
4. U8A G9C U11C  1.03
5. U8A G9U U10C U11C C12G  1.03
6. U8A G9U U10G U11A C13U  1.03
7. U8A G9U U10G U11A C13G  1.03
8. U8A G9C U11C C13G  1.04
9. U8A G9U U10C U11C  1.04
10. U8A G9C U11G C13G  1.04
11. U8A G9U U10C C13G  1.04
12. U8A G9U U10G U11C C12U C13A  1.04
13. U8A G9U U10C U11C C12U  1.04
14. U8A G9U U10C U11C C12U C13A  1.04
15. U8A G9U U10C U11C C12U C13G  1.04
16. U8A G9U U10C U11C C12U C13U  1.04
17. U8A G9U U10G U11A C12U  1.05
18. U8A G9C U11C C12A C13G  1.05
19. U8A G9U U10G U11C C12U C13G  1.05
20. U8A G9U U10C C12A C13U  1.05
21. U8A G9C U11C C13U  1.06
22. U8A G9C U11C C13A  1.06
23. U8A G9C U11C C12A C13U  1.06
24. U8A G9U U10C U11A C12G  1.06
25. U8A G9U U10C C12A C13G  1.06
26. U8A G9U U11C C12U C13G  1.06
27. U8A G9C U11G C12A  1.06
28. U8A G9U U11C C12A C13G  1.07
29. U8A G9U U10A U11A C13G  1.07
30. U8A G9U U10G U11G C12A  1.07
31. U8A G9C U11C C12A C13A  1.07
32. U8A G9U U11G C12A  1.07
33. U8A U10A  1.07
34. U8A G9U U10G U11C C12G C13G  1.07
35. U8A G9C U11C C12G  1.07
36. U8A G9U U11A C12U C13U  1.08
37. U8A U10A C12A C13G  1.08
38. U8A G9U U10C C13A  1.08
39. U8A G9C U10G U11G C12U C13G  1.08
40. U8A G9C U10G U11G C12U C13A  1.08
41. U8A G9U U10G U11C C12U C13U  1.08
42. U8A G9C U11G C12U C13U  1.08
43. U8A G9U U10G U11C C12G C13A  1.08
44. U8A G9C U11C C12A  1.08
45. U8A G9U U11A C12U C13G  1.09
46. U8A G9U C13G  1.09
47. U8A G9U U10G U11C C12A C13A  1.09
48. U8A G9U U10C C12A C13A  1.09
49. U8A G9U U11A C12G  1.09
50. U8A G9C U11C C12U  1.09
51. U8A G9U U10A U11G C12G C13A  1.1
52. U8A G9U U11A C13A  1.1
53. U8A G9C U11G C12A C13A  1.1
54. U8A G9U U11C C12A C13U  1.11
55. U8A G9U U11G C12A C13A  1.11
56. U8A G9C U10G U11G C12U C13U  1.11
57. U8A U10A C12U  1.11
58. U8A U10A C12A  1.11
59. U8A G9U U10C U11A C12A  1.11
60. U8A G9U U11G C12G  1.12
61. U8A G9U U10C U11A C12G C13G  1.12
62. U8A G9U U10G U11C C12G C13U  1.12
63. U8A G9U U10G U11A C12U C13U  1.12
64. U8A G9C U11A C12G C13A  1.12
65. U8A G9U U11A C13G  1.13
66. U8A G9U U10G U11A C12U C13A  1.13
67. U8A G9U U10G C12U  1.13
68. U8A G9U U10G C12G  1.13
69. U8A G9U U11C C12A C13A  1.14
70. U8A G9U U10C U11A C12G C13U  1.14
71. U8A G9C U10G U11G C12G C13A  1.14
72. U8A G9U U10G U11G C12A C13G  1.14
73. U8A G9C U11A C12G C13U  1.14
74. U8A G9U U10C C12G C13A  1.15
75. U8A G9C U11G C13A  1.15
76. U8A G9U U10C C13U  1.15
77. U8A G9U U10C U11A C12G C13A  1.15
78. U8A G9U U10G U11C C12A C13U  1.15
79. U8A U10A C12G C13A  1.15
80. U8A G9U C12A C13U  1.15
81. U8A G9U U10A U11A C12A C13A  1.16
82. U8A U10A C12G  1.16
83. U8A G9U U10G U11A C12A C13G  1.16
84. U8A G9U C12A C13G  1.16
85. U8A G9U U10G U11A C12U C13G  1.16
86. U8A G9U U10G U11G C12A C13A  1.16
87. U8A G9U U11G C12G C13U  1.16
88. U8A G9U U11C C12U C13U  1.16
89. U8A G9C U11G C12G  1.16
90. U8A G9U U10A U11G C12U C13G  1.17
91. U8A G9C U11G C13U  1.17
92. U8A G9C U11A C12G C13G  1.17
93. U8A G9U U10C C12G C13G  1.18
94. U8A G9U U11A C12A C13G  1.18
95. U8A U10A C12A C13U  1.18
96. U8A G9U U10C U11A C12U  1.18
97. U8A G9C U11A C12A C13G  1.18
98. U8A G9U C12G  1.18
99. U8A G9U U10G C12A  1.18
100. U8A G9U U11G C12U C13G  1.19
101. U8A U10A C12A C13A  1.19
102. U8A U10A C12G C13G  1.19
103. U8A G9C U11G C12A C13U  1.2
104. U8A G9U U11C C12U C13A  1.2
105. U8A G9U U10G U11A C12A  1.21
106. U8A G9C U11A C12A C13U  1.21
107. U8A G9C U11A  1.21
108. U8A G9U U11A C12A C13A  1.22
109. U8A G9U U10G U11A C12A C13A  1.22
110. U8A G9C U11A C12A C13A  1.22
111. U8A G9U C12A  1.22
112. U8A G9U U11G C12A C13U  1.23
113. U8A G9U U10A U11A C12A C13G  1.23
114. U8A G9C U10G U11G C12G C13G  1.23
115. U8A G9C U10G U11G C12U  1.23
116. U8A G9U U10A U11A C12A C13U  1.24
117. U8A G9U C13A  1.24
118. U8A G9U U10A U11G C12G C13G  1.24
119. U8A G9U U11A C13U  1.24
120. U8A G9U U11G C12G C13G  1.24
121. U8A G9C U10G U11G C12G  1.24
122. U8A G9U U10C C12G C13U  1.25
123. U8A G9U C12U C13G  1.25
124. U8A G9C U11G  1.25
125. U8A G9C U11G C12A C13G  1.25
126. U8A G9U U11G C12G C13A  1.25
127. U8A G9U U10G U11G C12A C13U  1.26
128. U8A G9U U10G U11A C12G C13A  1.27
129. U8A G9U U10G U11G C12G  1.27
130. U8A G9U U10A U11G C12U C13A  1.27
131. U8A G9C U11G C12U C13G  1.27
132. U8A G9U U10A U11A C12G C13A  1.27
133. U8A G9U U10G U11A C12G  1.28
134. U8A G9U U10A U11A C13U  1.28
135. U8A G9U U10G U11A C12G C13U  1.28
136. U8A G9U U10G U11G C12U  1.28
137. U8A G9U U11A C12A  1.28
138. U8A G9U U10A U11A C13A  1.29
139. U8A G9U U10G U11A C12G C13G  1.31
140. U8A G9U U10A U11G C12G C13U  1.31
141. U8A G9C U11G C12U C13A  1.31
142. U8A G9U U10A  1.31
143. U8A G9C U10G U11G C12G C13U  1.31
144. U8A G9U U10A U11A C12G C13G  1.32
145. U8A G9U U10C U11G  1.34
146. U8A G9U U10C U11A  1.34
147. U8A G9U C12U C13A  1.36
148. U8A G9U C12U C13U  1.36
149. U8A U10A C12G C13U  1.37
150. U8A G9U U11A C12A C13U  1.38
151. U8A G9U U10A U11A C12G C13U  1.38
152. U8A G9U U10A U11G C12U C13U  1.4
153. U8A G9U C13U  1.4
154. U8A G9U U11G C12U C13A  1.41
155. U8A G9U U11G C12A C13G  1.41
156. U8A G9U U10A U11G  1.42
157. U8A G9C U11G C12U  1.45
158. U8A G9U C12U  1.46
159. U8A G9U U10G U11A C12A C13U  1.47
160. U8A G9U U11A C12U  1.47
161. U8A G9U U11G C12U C13U  1.5
162. U8A G9U U11G C12U  1.51
163. U8A G9U U11A C12U C13A  1.52
164. U8A G9U C12A C13A  1.52
165. U8A G9U U10G  1.61
166. U8A G9U U10A U11A  1.67
167. U8A G9U U10C  1.88
